From patent US20170369523A1, “TEMPLATE-FIXED BETA-HAIRPIN PEPTIDOMIMETICS THAT ARE LIGANDS FOR G-PROTEIN-COUPLED RECEPTORS (GPCRS) AND ARE MODULATORS OF TRANSCRIPTION FACTORS AND COACTIVATORS” (POLYPHOR AG, priority 2008, published 2017)
Numbered stars: 1 amine (or outer) side, 2 acyl side, 3 side chain; on linkers, the order of the positions; unused ones are H or OH. Bridge positions count the residues as written; N and C are the ends. Square brackets hold non-standard residues; d marks the D form. Peptide text beside a SMILES is read from it. Glu(cHx) = L-glutamic acid cyclohexyl ester, O=C(CC[C@H](N[*:1])C(=O)[*:2])OC1CCCCC1; Pro(4S-SH) = O=C([C@@H]1C[C@H](S[*:3])CN1[*:1])[*:2]; Trp(6-Cl) = N[C@@H](Cc1c[nH]c2cc(Cl)ccc12)C(=O)O; Cha = N[C@@H](CC1CCCCC1)C(=O)O; Orn = NCCC[C@H](N)C(=O)O

T1: human UTR2 receptor (human, UniProt Q9UKP6 1-389)
T1 sequence (looked up): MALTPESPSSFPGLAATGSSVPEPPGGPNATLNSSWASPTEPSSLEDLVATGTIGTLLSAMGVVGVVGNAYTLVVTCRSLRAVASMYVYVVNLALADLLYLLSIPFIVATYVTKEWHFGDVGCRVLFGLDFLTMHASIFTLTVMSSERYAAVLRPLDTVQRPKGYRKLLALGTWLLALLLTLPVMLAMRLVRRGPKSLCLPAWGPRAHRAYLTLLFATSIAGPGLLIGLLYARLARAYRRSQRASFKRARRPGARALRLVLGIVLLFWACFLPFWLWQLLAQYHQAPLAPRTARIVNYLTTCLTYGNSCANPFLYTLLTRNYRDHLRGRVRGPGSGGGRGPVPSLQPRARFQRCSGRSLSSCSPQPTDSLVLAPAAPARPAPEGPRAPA

T2: NCoA-1 (Homo sapiens, UniProt Q15788)
T2 sequence (Q15788 257-385 limits assumed): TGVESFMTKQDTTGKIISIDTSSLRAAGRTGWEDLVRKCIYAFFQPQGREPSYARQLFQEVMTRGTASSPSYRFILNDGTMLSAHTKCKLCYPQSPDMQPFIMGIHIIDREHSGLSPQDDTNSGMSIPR

B1: Ex. 32 (peptide)
peptide: cyclo(DCF[dW][Orn]YCV[dP]P)
modifications: disulfide 2-7
SMILES: CC(C)[C@@H]1NC(=O)[C@@H]2CSSC[C@H](NC(=O)[C@H](CC(=O)O)NC(=O)[C@@H]3CCCN3C(=O)[C@H]3CCCN3C1=O)C(=O)N[C@@H](Cc1ccccc1)C(=O)N[C@H](Cc1c[nH]c3ccccc13)C(=O)N[C@@H](CCCN)C(=O)N[C@@H](Cc1ccc(O)cc1)C(=O)N2
B2: Ex. 35 (peptide)
peptide: cyclo(DCFWKYC[Cha][dP]P)
modifications: disulfide 2-7
SMILES: NCCCC[C@@H]1NC(=O)[C@H](Cc2c[nH]c3ccccc23)NC(=O)[C@H](Cc2ccccc2)NC(=O)[C@@H]2CSSC[C@H](NC(=O)[C@H](Cc3ccc(O)cc3)NC1=O)C(=O)N[C@@H](CC1CCCCC1)C(=O)N1CCC[C@@H]1C(=O)N1CCC[C@H]1C(=O)N[C@@H](CC(=O)O)C(=O)N2

target: T1, human UTR2 receptor; assay: cell-based or functional assay; settings: not given

| Molecule | IC50% (Ca2+ assay, antagonist activity; compound added prior to urotensin) |
| --- | --- |
| B1 | 0.03 nM |
| B2 | 0.2 nM |

target: T2, NCoA-1; assay: Competition fluorescence polarization assay: NCoA-1 binding affinities of peptides (STAT6/NCoA-1 interaction); settings: competition with FluoSTAT6 (200 nM), NCoA-1 1 μM; Ki calculated from IC50; read-out: Ki [μM], peptide binding to NCoA-1
Procedure: 2.4. Fluorescence Polarization Assay: NCoA-1 Binding Affinities of Peptides
The mixtures were shaken thoroughly. Fluorescence polarization was measured on a SPECTRAmax M5 spectrometer (Molecular device) following 5-30 min incubation at room temperature. FluoSTAT6 was excited at 490 nm and emission polarization was detected at 525 nm. 40 intensity measurements were collected for each well, 20 at horizontal position of the dynamic polarizer, 20 at parallel position. As the fraction of FluoSTAT6 bound to NCoA-1 is correlated to the fluorescence polarization (FP), after normalization, the fraction of bound FluoSTAT6 (B) was determined, and the KD was calculated according to B=[(1+P/R+KD/R)−((1+P/R+KD/R)^2−4P/R)^0.5]/2, wherein P is the total probe concentration, R the total protein concentration and KD the dissociation constant (M. H. Roehrl, J. Y. Wang, G. Wagner, Biochemistry 2004, 3, 16056).
The mixture was completed by a HEPES buffer solution of NCoA-1 (1 μM final concentration) and processed as described above. STAT6Y (C-terminal tyrosine extended STAT6 794-814 peptide) was used as a positive control. As the total fluorescence intensity of FluoSTAT6 remains similar for all samples, the fraction of peptide bound to NCoA-1 is correlated to the fluorescence polarization.
Following normalization data were fitted with IGORpro Software® (WaveMetrics, Lake Oswego, Oreg., USA) to a sigmoid equation to determine IC50 values. The Ki values were calculated from IC50 values according to the method described by Nikolovska-Coleska et al. Anal. Biochem., 2004, 332, 261).

| Molecule | Ki |
| --- | --- |
| backbone-cyclized β-hairpin peptidomimetic; P1-P8 Phe-Thr-Trp(6Cl)-Leu-Ala-Trp-Glu-Phe, template DPro-L4Mp1 (cyclo(FT[Trp(6-Cl)]LAWEF[dP][Pro(4S-SH)]); SMILES CC(C)C[C@@H]1NC(=O)[C@H](Cc2c[nH]c3cc(Cl)ccc23)NC(=O)[C@H]([C@@H](C)O)NC(=O)[C@H](Cc2ccccc2)NC(=O)[C@@H]2C[C@H](S)CN2C(=O)[C@H]2CCCN2C(=O)[C@H](Cc2ccccc2)NC(=O)[C@H](CCC(=O)O)NC(=O)[C@H](Cc2c[nH]c3ccccc23)NC(=O)[C@H](C)NC1=O) [compound 5] | 3.8 µM |
| CC[C@H](C)[C@@H]1NC(=O)[C@H](CCC(=O)O)NC(=O)[C@H](Cc2c[nH]c3ccccc23)NC(=O)[C@H](C)NC(=O)[C@H](CC(C)C)NC(=O)[C@H](Cc2c[nH]c3ccccc23)NC(=O)[C@H](CCC(=O)O)NC(=O)[C@H](Cc2ccccc2)NC(=O)[C@@H]2CCCN2C(=O)[C@H]2CCCN2C1=O [compound 10] (cyclo(FEWLAWEI[dP]P)) | 3.1 µM |
| C[C@@H]1NC(=O)[C@H](CS)NC(=O)[C@H](Cc2c[nH]c3cc(Cl)ccc23)NC(=O)[C@H](CCC(=O)O)NC(=O)[C@H](Cc2ccccc2)NC(=O)[C@@H]2CCCN2C(=O)[C@H]2CCCN2C(=O)[C@H](Cc2ccccc2)NC(=O)[C@H](CCC(=O)O)NC(=O)[C@H](Cc2c[nH]c3ccccc23)NC1=O [compound 15] (cyclo(FE[Trp(6-Cl)]CAWEF[dP]P)) | 3.1 µM |
| backbone-cyclized β-hairpin peptidomimetic; P1-P8 Phe-Glu-Trp-Leu-Ala-Trp-Glu-Glu(cHx), template DPro-LPro (cyclo(FEWLAWE[Glu(cHx)][dP]P); SMILES CC(C)C[C@@H]1NC(=O)[C@H](Cc2c[nH]c3ccccc23)NC(=O)[C@H](CCC(=O)O)NC(=O)[C@H](Cc2ccccc2)NC(=O)[C@@H]2CCCN2C(=O)[C@H]2CCCN2C(=O)[C@H](CCC(=O)OC2CCCCC2)NC(=O)[C@H](CCC(=O)O)NC(=O)[C@H](Cc2c[nH]c3ccccc23)NC(=O)[C@H](C)NC1=O) [compound 9] | 1.5 µM |
